One block for each binder: values may come before it.
What was measured:
Test in all cases: cell-based or functional assay
MMP9 = MMP9 (human, UniProt P14780 107-707, limits assumed)
Cathepsin G = target: T1, Cathepsin G (UniProt P08311 21-244)
T1 sequence (looked up): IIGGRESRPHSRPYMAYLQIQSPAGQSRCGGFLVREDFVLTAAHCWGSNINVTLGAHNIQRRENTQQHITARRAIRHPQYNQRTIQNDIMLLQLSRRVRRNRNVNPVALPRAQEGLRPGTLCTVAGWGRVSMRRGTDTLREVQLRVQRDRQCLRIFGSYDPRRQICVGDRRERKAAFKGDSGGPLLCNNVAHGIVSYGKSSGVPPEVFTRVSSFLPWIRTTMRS

ADAMTS5 = target: T2, ADAMTS5 (human, UniProt Q9UNA0 262-622, limits assumed)
T2 sequence (looked up): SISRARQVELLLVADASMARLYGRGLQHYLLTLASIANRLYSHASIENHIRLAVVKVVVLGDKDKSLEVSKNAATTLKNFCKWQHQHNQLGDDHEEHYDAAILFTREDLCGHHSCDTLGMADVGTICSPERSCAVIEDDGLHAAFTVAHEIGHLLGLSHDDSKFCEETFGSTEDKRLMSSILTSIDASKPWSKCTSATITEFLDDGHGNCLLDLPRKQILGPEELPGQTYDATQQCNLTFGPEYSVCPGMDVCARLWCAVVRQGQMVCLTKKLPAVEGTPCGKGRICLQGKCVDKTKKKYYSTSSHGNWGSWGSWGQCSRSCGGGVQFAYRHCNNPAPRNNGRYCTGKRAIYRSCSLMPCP

MMP13 = MMP13 (human, UniProt P45452 104-471, limits assumed)
Elastase = target: Elastase
MMP2 = target: T3, MMP2 (human, UniProt P08253 110-660, limits assumed)
T3 sequence (looked up): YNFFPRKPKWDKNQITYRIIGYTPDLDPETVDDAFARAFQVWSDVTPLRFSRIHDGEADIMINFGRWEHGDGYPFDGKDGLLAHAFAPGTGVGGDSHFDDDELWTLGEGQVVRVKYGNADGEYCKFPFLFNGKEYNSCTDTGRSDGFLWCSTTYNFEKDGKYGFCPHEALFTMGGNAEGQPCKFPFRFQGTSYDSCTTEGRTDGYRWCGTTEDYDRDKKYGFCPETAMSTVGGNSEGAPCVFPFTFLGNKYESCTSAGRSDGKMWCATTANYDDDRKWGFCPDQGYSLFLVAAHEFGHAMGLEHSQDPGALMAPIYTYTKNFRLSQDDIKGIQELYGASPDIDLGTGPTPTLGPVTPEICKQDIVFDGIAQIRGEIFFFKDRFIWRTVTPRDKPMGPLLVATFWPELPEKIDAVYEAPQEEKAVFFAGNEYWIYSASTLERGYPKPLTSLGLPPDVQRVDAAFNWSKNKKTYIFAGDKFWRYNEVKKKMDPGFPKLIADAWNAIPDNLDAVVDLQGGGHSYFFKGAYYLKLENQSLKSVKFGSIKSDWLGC

MMP7 = target: T4, MMP7 (UniProt P09237 95-267, limits assumed)
T4 sequence (looked up): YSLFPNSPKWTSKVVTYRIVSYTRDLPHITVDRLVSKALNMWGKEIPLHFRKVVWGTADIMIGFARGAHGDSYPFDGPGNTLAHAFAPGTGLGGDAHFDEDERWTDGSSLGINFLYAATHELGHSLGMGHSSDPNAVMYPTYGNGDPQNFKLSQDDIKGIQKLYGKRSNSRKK

MMP3 = MMP3 (human, UniProt P08254 100-477, limits assumed)
Sequence of MMP3 (P08254 100-477 limits assumed): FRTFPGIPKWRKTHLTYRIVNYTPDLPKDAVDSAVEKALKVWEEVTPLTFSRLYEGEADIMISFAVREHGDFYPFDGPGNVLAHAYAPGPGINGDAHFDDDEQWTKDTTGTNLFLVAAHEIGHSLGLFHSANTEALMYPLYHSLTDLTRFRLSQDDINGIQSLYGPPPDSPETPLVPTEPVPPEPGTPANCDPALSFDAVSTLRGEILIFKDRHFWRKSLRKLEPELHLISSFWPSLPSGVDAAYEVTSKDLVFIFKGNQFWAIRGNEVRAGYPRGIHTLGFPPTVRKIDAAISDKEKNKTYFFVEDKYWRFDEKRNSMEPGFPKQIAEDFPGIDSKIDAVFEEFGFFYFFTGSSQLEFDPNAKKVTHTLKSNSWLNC

MMP1 = target: T5, MMP1 (human, UniProt P03956 100-469, limits assumed)
T5 sequence (looked up): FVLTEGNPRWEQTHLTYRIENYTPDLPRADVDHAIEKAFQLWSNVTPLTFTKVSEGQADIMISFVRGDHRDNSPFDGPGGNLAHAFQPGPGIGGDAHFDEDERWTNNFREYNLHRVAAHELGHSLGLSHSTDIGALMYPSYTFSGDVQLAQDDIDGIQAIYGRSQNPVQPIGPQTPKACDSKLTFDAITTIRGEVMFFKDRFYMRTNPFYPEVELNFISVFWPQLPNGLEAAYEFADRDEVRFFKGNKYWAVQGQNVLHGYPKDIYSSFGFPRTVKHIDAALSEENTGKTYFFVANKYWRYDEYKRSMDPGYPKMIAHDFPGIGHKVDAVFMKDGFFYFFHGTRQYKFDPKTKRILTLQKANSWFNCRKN

MMP8 = MMP8 (human, UniProt P22894 101-467, limits assumed)
Sequence of MMP8 (P22894 101-467 limits assumed): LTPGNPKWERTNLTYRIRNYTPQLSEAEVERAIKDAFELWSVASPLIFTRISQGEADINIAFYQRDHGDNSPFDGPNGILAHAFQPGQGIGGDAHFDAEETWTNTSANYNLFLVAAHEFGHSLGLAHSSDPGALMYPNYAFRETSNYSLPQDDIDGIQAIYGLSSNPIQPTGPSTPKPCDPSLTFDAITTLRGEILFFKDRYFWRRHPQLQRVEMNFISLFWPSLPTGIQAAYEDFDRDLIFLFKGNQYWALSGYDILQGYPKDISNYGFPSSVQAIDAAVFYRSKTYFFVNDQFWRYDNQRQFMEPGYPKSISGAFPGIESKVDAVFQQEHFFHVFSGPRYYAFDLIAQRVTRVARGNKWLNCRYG

Sequence of MMP9 (P14780 107-707 limits assumed): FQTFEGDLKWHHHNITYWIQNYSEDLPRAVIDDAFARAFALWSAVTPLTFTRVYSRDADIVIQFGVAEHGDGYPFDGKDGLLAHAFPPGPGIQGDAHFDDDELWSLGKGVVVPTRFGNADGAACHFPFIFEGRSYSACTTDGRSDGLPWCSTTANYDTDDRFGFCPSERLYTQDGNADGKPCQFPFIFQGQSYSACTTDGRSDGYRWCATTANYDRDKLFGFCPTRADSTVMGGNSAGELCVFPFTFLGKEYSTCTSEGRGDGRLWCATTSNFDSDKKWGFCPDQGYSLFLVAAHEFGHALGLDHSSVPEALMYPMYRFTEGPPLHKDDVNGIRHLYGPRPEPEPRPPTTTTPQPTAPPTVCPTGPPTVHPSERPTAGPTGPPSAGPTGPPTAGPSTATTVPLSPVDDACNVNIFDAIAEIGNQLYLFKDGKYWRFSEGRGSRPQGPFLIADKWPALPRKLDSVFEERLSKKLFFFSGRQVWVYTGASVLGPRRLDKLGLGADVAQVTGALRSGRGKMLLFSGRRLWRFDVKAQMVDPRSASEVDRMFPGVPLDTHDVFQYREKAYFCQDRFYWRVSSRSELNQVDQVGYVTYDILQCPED

Protease Inhibition (% of WT) (MMP9): 5 % of WT
Protease Inhibition (% of WT) (Cathepsin G): 84 % of WT
Protease Inhibition (% of WT) (ADAMTS5): 85 % of WT
Protease Inhibition (% of WT) (MMP13): 70 % of WT
Protease Inhibition (% of WT) (Elastase): 98 % of WT
Protease Inhibition (% of WT) (MMP2): 16 % of WT
Protease Inhibition (% of WT) (MMP7): 104 % of WT
Protease Inhibition (% of WT) (MMP3): 101 % of WT
Protease Inhibition (% of WT) (MMP1): 87 % of WT
Protease Inhibition (% of WT) (MMP8): 29 % of WT
B1: Variant A2M, bait region SEQ ID NO 29 (other)
chain: SVSGKPQYMVLVPSLLHTETTEKGCVLLSYLNETVTVSASLESVRGNRSLFTDLEAENDVLHCVAFAVPKSSSNEEVMFLTVQVKGPTQEFKKRTTVMVKNEDSLVFVQTDKSIYKPGQTVKFRVVSMDENFHPLNELIPLVYIQDPKGNRIAQWQSFQLEGGLKQFSFPLSSEPFQGSYKVVVQKKSGGRTEHPFTVEEFVLPKFEVQVTVPKIITILEEEMNVSVCGLYTYGKPVPGHVTVSICRKYSDASDCHGEDSQAFCEKFSGQLNSHGCFYQQVKTKVFQLKRKEYEMKLHTEAQIQEEGTVVELTGRQSSEITRTITKLSFVKVDSHFRQGIPFFGQVRLVDGKGVPIPNKVIFIRGNEANYYSNATTDEHGLVQFSINTTNVMGTSLTVRVNYKDRSPCYGYQWVSEEHEEAHHTAYLVFSPSKSFVHLEPMSHELPCGHTQTVQAHYILNGGTLLGLKKLSFYYLIMAKGGIVRTGTHGLLVKQEDMKGHFSISIPVKSDIAPVARLLIYAVLPTGDVIGDSAKYDVENCLANKVDLSFSPSQSLPASHAHLRVTAAPQSVCALRAVDQSVLLMKPDAELSASSVYNLLPEKDLTGFPGPLNDQDDEDCINRHNVYINGITYTPVSSTNEKDMYSFLEDMGLKAFTNSKIRKPKMCPQLEQPEGEGEGPRYLTAIPENFFGVSEDLVVQISELEGRGSVEEPHTKLRKYFPETWIWDLVVVNSAGVAEVGVTVPDTITEWKAGAFCLSEDAGLGISSTASLRAFQPFFVELTMPYSVIRGEAFTLKATVLNYLPKCIRVSVQLEASPAFLAVPVEKEQAPHCICANGRQTVSWAVTPKSLGNVNFTVSAEALESQELCGTEVPSVPEHGRKDTVIKPLLVEPEGLEKETTFNSLLCPSGGEVSEELSLKLPPNVVEESARASVSVLGDILGSAMQNTQNLLQMPYGCGEQNMVLFAPNIYVLDYLNETQQLTPEIKSKAIGYLNTGYQRQLNYKHYDGSYSTFGERYGRNQGNTWLTAFVLKTFAQARAYIFIDEAHITQALIWLSQRQKDNGCFRSSGSLLNNAIKGGVEDEVTLSAYITIALLEIPLTVTHPVVRNALFCLESAWKTAQEGDHGSHVYTKALLAYAFALAGNQDKRKEVLKSLNEEAVKKDNSVHWERPQKPKAPVGHFYEPQAPSAEVEMTSYVLLAYLTAQPAPTSEDLTSATNIVKWITKQQNAQGGFSSTQDTVVALHALSKYGAATFTRTGKAAQVTIQSSGTFSSKFQVDNNNRLLLQQVSLPELPGEYSMKVTGEGCVYLQTSLKYNILPEKEEFPFALGVQTLPQTCDEPKAHTSFQISLSVSYTGSRSASNMAIVDVKMVSGFIPLKPTVKMLERSNHVSRTEVSSNHVLIYLDKVSNQTLSLFFTVLQDVPVRDLKPAIVKVYDYYETDEFAIAEYNAPCSKDLGNADYKDDDDKGASHHHHHH

Protease Inhibition (% of WT) (MMP9): 13 % of WT
Protease Inhibition (% of WT) (Cathepsin G): 161 % of WT
Protease Inhibition (% of WT) (ADAMTS5): 114 % of WT
Protease Inhibition (% of WT) (MMP13): 54 % of WT
Protease Inhibition (% of WT) (Elastase): 79 % of WT
Protease Inhibition (% of WT) (MMP2): 16 % of WT
Protease Inhibition (% of WT) (MMP7): 138 % of WT
Protease Inhibition (% of WT) (MMP3): 33 % of WT
Protease Inhibition (% of WT) (MMP1): 109 % of WT
Protease Inhibition (% of WT) (MMP8): 43 % of WT
B2: Variant A2M, bait region SEQ ID NO 27 (other)
chain: SVSGKPQYMVLVPSLLHTETTEKGCVLLSYLNETVTVSASLESVRGNRSLFTDLEAENDVLHCVAFAVPKSSSNEEVMFLTVQVKGPTQEFKKRTTVMVKNEDSLVFVQTDKSIYKPGQTVKFRVVSMDENFHPLNELIPLVYIQDPKGNRIAQWQSFQLEGGLKQFSFPLSSEPFQGSYKVVVQKKSGGRTEHPFTVEEFVLPKFEVQVTVPKIITILEEEMNVSVCGLYTYGKPVPGHVTVSICRKYSDASDCHGEDSQAFCEKFSGQLNSHGCFYQQVKTKVFQLKRKEYEMKLHTEAQIQEEGTVVELTGRQSSEITRTITKLSFVKVDSHFRQGIPFFGQVRLVDGKGVPIPNKVIFIRGNEANYYSNATTDEHGLVQFSINTTNVMGTSLTVRVNYKDRSPCYGYQWVSEEHEEAHHTAYLVFSPSKSFVHLEPMSHELPCGHTQTVQAHYILNGGTLLGLKKLSFYYLIMAKGGIVRTGTHGLLVKQEDMKGHFSISIPVKSDIAPVARLLIYAVLPTGDVIGDSAKYDVENCLANKVDLSFSPSQSLPASHAHLRVTAAPQSVCALRAVDQSVLLMKPDAELSASSVYNLLPEKDLTGFPGPLNDQDDEDCINRHNVYINGITYTPVSSTNEKDMYSFLEDMGLKAFTNSKIRKPKMCPQLEQYEMHGPEGEGEGEGIPENFYGVSEDLYTASELEGRGSVEEPHTKLRKYFPETWIWDLVVVNSAGVAEVGVTVPDTITEWKAGAFCLSEDAGLGISSTASLRAFQPFFVELTMPYSVIRGEAFTLKATVLNYLPKCIRVSVQLEASPAFLAVPVEKEQAPHCICANGRQTVSWAVTPKSLGNVNFTVSAEALESQELCGTEVPSVPEHGRKDTVIKPLLVEPEGLEKETTFNSLLCPSGGEVSEELSLKLPPNVVEESARASVSVLGDILGSAMQNTQNLLQMPYGCGEQNMVLFAPNIYVLDYLNETQQLTPEIKSKAIGYLNTGYQRQLNYKHYDGSYSTFGERYGRNQGNTWLTAFVLKTFAQARAYIFIDEAHITQALIWLSQRQKDNGCFRSSGSLLNNAIKGGVEDEVTLSAYITIALLEIPLTVTHPVVRNALFCLESAWKTAQEGDHGSHVYTKALLAYAFALAGNQDKRKEVLKSLNEEAVKKDNSVHWERPQKPKAPVGHFYEPQAPSAEVEMTSYVLLAYLTAQPAPTSEDLTSATNIVKWITKQQNAQGGFSSTQDTVVALHALSKYGAATFTRTGKAAQVTIQSSGTFSSKFQVDNNNRLLLQQVSLPELPGEYSMKVTGEGCVYLQTSLKYNILPEKEEFPFALGVQTLPQTCDEPKAHTSFQISLSVSYTGSRSASNMAIVDVKMVSGFIPLKPTVKMLERSNHVSRTEVSSNHVLIYLDKVSNQTLSLFFTVLQDVPVRDLKPAIVKVYDYYETDEFAIAEYNAPCSKDLGNADYKDDDDKGASHHHHHH

Source: patent publication US20230250154A1 (CYTONICS, published 2023)
